Assay results: patent publication US20150160214A1, “Quantitation of Cellular Adhesion Dynamics Across Immobilized Receptors Under Rheological Shear Flow” (Mayo Foundation for Medical Education and Research, priority 2013, published 2015)
Values joined by “and” are separate entries in the source; they are usually repeats but may differ in a detail not shown here. Identical values can stand only once.

How the values were obtained:
[1] = Temperature-induced unfolding by fluorescence and CD, irreversible models (Example 1); format: physicochemical
Description: A1-1261 and A1-1238 were thermally unfolded using intrinsic protein tyrosine and tryptophan fluorescence with an excitation λ=280 nm and emission λ=359 nm and CD monitored at λ=222 nm. […] As the scan rate increases, the midpoint of the transition (apparent TM) also increases.
Thermal transitions were analyzed in terms of the observed midpoint of the transition, apparent TM, and also by a two-state irreversible model or a three-state irreversible model as described in the Supplement and the calculated parameters are summarized in FIGS. 5A to 5D. […] If the protein unfolding was at equilibrium and reversible, this apparent TM would remain constant at all scan rates. Extrapolation of the TM to a scan rate of 0° Celsius/min provides an indication of where reversible unfolding would occur under equilibrium conditions; 50° Celsius for A1-1238 and 48° Celsius for A1-1261 from both CD and fluorescence data. For the second transition observed by fluorescence that occurs with A1-1238, the TM extrapolates to about 73° Celsius in the limit of zero scan rate. Analysis by the two-state and three-state irreversible models yields an R^2>0.99 for both fluorescence and CD and a transition temperature, T*, that is independent of the temperature scan rate. In addition, the enthalpies of the transitions are independent of scan rate within experimental error FIG. 5B. FIGS. 5C and 5D show the resulting average T* and ΔHT*^‡±the standard deviation obtained from the fitting of the primary thermal transitions in FIG. 4A to 4D for CD and fluorescence and a total average for both methods. […] However, the unfolding enthalpy was statistically larger for A1-1238 (250±15 kJ/mol) than for A1-1261 (204±10 kJ/mol). The average T* and ΔHT*^‡ observed in the second fluorescence transition of A1-1238 is 89.1±2.2° Celsius and 360±14 kJ/mol.
Prior to all spectroscopic thermal scans, protein samples were equilibrated at 10° Celsius for 15 min to obtain a stable baseline. CD thermal scans between 10 and 95° Celsius were recorded at λ=222 nm using a protein concentration of 1 or 2 μM in a 1 cm quartz cell under moderate stirring. Scan rates were 0.5, 1.0, 1.5 and 2.0° Celsius/min. Integration time for each data point was 20 s with a 1 nm bandwidth. Fluorescence thermal scans between 10 and 95 Celsius were recorded at an emission λ=359 nm after excitation λ=280 nm or λ=295 nm using 2 μM protein in a 1 cm quartz cell with moderate stirring. Scan rates were 0.4 or 0.6, 0.9, 1.6 and 2.0° Celsius/min. At each temperature, relative fluorescence intensity was collected for 4 s and averaged. Thermal scans in the presence of N-terminal peptide at 2.0° Celsius/min were preceded by 1 h incubations at 20° Celsius with 0.02-300 μM peptide.
For an irreversible two-state transition, unfolding is kinetically controlled by a first order rate constant that varies with temperature according to the Arrhenius equation (Atkins:1994). In our analysis the inventor refers to the intermediate state as the final irreversible state for all thermal transitions involving the unfolding of A1-1261 in the absence of peptide when monitored by fluoresence, CD and DSC and for A1-1238 when monitored by CD and DSC. The following equations derived below are equally valid for any two state irreversible transitions The activation energy in going from N->I is ΔG^‡=−RT ln k^‡ and the inventor expands ln k^‡ as a function of temperature in terms of Δβ=(β−β*)=(1/RT−1/RT*) using a Taylor series, where T̂* is the temperature at which ΔG^‡=0.

[2] = Conformational and thermodynamic classification of A1 domain variants (urea and thermal denaturation, CD, FL, ANS); format: physicochemical
Description: Circular dichroism measurements were performed on a Model No. 420C circular-dichroism spectrometer (Aviv Biomedical, Inc., Lakewood Township, N.J.). All fluorescence (FL) measurements were performed on a Fluorolog3 spectrofluorometer (HORIBA Jobin-Yvon, Edison, N.J.) equipped with a Model No. LF1-3751 temperature controller (Wavelength Electronics Inc., Bozeman, Mont.). Near- and far-ultraviolet (UV) circular dichroism (CD), intrinsic protein FL, and ANS (8-anilino naphthalene sulfonic acid) […] spectra were determined as described in Tischer et al. (19). Urea denaturation (monitored by far-UV CD) and thermal denaturation (monitored by far-UV CD, intrinsic protein FL, and ANS FL) were performed and analyzed as previously described (19,20). Acrylamide quenching of intrinsic tryptophan fluorescence was performed and analyzed as described in Tischer et al. (19). All spectra were collected at 20° C.
The effects of mutations on the thermodynamic stability of A1 (18) was determined and a framework that incorporated partial unfolding as a means for enhancing the binding affinity of A1 for GPIba was developed (17). Initially, urea-temperature phase diagram method were used for assessing the reversible thermodynamics of unfolding at various temperatures (18,21), and more recently thermal denaturations were used to assess kinetic irreversibility (20,22). The inventor employed these methods using a variety of spectroscopic observables that assess the conformation of these A1 domain variants as a function of temperature and urea.
The observables included the following: (1) Far-UV CD to assess secondary structure content; (2) Near-UV CD to assess tertiary structure content; (3) Intrinsic protein FL to assess solvent exposure of tyrosine and tryptophan residues; (4) Acrylamide quenching of tryptophan FL to assess local solvent exposure of the single tryptophan residue; and (5) Binding of the molten globule indicator-dye, ANS, to assess exposure of hydrophobic surface area.
In total, these studies have provided metrics that are able to classify the conformation of A1 into three types, based on biophysical spectroscopy, as follows:
The type 2B mutations R1306Q and I1309V and the type 2M mutation G1324S have previously been characterized in this conformational class (18). In addition, R1308L and I1372S also belong to this class.
The type 2M mutation A1437T and the type 2B mutation R1341Q belong to this class.
The type 2M mutations F1369I, E1359K, I1425F, S1285F, and R1374H, and the type 2B mutations H1268D, P1337L, V1316M, and V1314D, belong to this class.

[3] = determined previously (Auton:2009); cited from earlier work
[4] = covalently linked N-terminal peptide

## A1-1238: Recombinant human vWF A1 domain, amino acids Q1238-P1471, with N-terminal 6×His-Tag, disulfide intact
[1]; CD and fluorescence data
  Apparent TM extrapolated to a scan rate of 0° Celsius/min, primary transition: 50 ° Celsius and 49.8±1.2 ° Celsius
[1]; average of CD and fluorescence
  Transition temperature T*, primary unfolding transition: 63.9±0.6 ° Celsius
  Unfolding enthalpy ΔHT*‡, primary unfolding transition: 59.8 ± 3.59 kcal/mol
[1]; [4]
  Average T*, second fluorescence transition: 89.1±2.2 ° Celsius
  Average ΔHT*‡, second fluorescence transition: 86 ± 3.35 kcal/mol
[1]; fluorescence
  Apparent TM extrapolated to zero scan rate, second transition by fluorescence: about 73 ° Celsius
[2]
  A1 domain Conformation: N (N = “Native” (native structure with varying thermodynamic stability))
[3]
  Tm from reversible N<->I urea-temperature phase diagram: 51.1±0.5 ° Celsius
